The text below walks through data of patent publication US20110008774A1.

This assay deals with β-galactosidase (β-gal, Sigma) (E. coli) [β-galactosidase: P00722]. The assay can be described thus: panning of mixtures with wt scFv13-SecM17 ARM complexes in 10:1, 100:1, 1,000:1 or 10,000:1 excess on immobilized β-gal; 10 clones sequenced per mixture.
β-galactosidase (β-gal, Sigma) (E. coli) [β-galactosidase: P00722], sequence (P00722 2-1024 limits assumed): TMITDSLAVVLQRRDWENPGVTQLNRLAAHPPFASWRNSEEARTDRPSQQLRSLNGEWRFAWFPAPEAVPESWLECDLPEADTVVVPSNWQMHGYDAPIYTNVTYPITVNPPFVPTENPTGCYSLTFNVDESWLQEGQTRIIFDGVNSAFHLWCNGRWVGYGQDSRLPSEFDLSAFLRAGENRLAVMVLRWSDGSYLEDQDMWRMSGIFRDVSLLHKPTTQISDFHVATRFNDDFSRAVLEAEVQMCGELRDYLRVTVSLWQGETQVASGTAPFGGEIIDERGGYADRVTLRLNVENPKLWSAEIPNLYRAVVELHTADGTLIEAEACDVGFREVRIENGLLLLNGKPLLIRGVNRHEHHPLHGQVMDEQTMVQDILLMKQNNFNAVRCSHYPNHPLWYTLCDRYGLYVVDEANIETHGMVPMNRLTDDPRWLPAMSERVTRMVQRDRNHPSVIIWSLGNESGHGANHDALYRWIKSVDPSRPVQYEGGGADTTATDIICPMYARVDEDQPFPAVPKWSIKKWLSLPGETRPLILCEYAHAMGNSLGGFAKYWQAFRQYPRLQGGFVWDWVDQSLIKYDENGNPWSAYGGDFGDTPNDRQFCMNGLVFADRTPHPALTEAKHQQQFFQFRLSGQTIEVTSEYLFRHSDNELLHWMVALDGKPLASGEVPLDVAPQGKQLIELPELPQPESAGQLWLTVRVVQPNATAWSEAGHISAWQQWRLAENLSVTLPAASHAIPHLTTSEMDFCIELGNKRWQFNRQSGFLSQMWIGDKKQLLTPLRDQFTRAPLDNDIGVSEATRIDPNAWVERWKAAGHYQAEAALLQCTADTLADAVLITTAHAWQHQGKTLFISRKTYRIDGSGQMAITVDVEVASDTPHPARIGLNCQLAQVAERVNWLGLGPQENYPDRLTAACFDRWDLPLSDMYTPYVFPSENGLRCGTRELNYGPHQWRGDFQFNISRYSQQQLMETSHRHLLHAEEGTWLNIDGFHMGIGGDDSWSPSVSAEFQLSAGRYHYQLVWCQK

Take scFv13-R4-SecM17 fusion: the share of sequenced clones recovered after panning came to 100%.
